Measured values: article doi:10.1101/2022.08.30.505785 (bioRxiv, 2022)

Molecular target: the molecule itself
Test: SAXS

B1: Oxalyl-CoA synthetase from Saccharomyces cerevisiae, K352D variant (enzyme, S. cerevisiae, UniProt P38137 1-543, looked up)
chain: MTSAATVTASFNDTFSVSDNVAVIVPETDTQVTYRDLSHMVGHFQTMFTNPNSPLYGAVFRQDTVAISMRNGLEFIVAFLGATMDAKIGAPLNPNYKEKEFNFYLNDLKSKAICVPKGTTKLQSSEILKSASTFGCFIVELAFDATRFRVEYDIYSPEDNYKRVIYRSLNNAKFVNTNPVKFPGFARSSDVALILHTSGTTSTPKTVPLLHLNIVRSTLNIANTYKLTPLDRSYVVMPLFHVHGLIGVLLSTFRTQGSVVVPDGFHPKLFWDQFVKYNCNWFSCVPTISMIMLNMPKPNPFPHIRFIRSCSSALAPATFHKLEKEFNAPVLEAYAMTEASHQMTSNNLPPGDRKPGTVGQPQGVTVVILDDNDNVLPPGKVGEVSIRGENVTLGYANNPKANKENFTKRENYFRTGDQGYFDPEGFLVLTGRIKELINRGGEKISPIELDGIMLSHPKIDEAVAFGVPDDMYGQVVQAAIVLKKGEKMTYEELVNFLKKHLASFKIPTKVYFVDKLPKTATGKIQRRVIAETFAKSSRNKSKL
stoichiometry N: 2
